Test results: PMC2756588

T1: Abp1, P15891
T1 sequence (P15891 535-592, looked up): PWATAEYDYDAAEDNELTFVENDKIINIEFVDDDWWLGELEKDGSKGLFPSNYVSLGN

T2: Bbc1, P47068
T2 sequence (P47068 1-78, looked up): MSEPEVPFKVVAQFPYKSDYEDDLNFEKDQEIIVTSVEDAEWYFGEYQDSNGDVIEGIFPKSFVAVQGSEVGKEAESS

T3: Boi1, P38041
T3 sequence (P38041 1-86, looked up): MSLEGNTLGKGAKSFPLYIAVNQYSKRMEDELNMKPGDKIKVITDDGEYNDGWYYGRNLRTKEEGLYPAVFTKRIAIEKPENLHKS

T4: Boi2, P39969
T4 sequence (P39969 32-116, looked up): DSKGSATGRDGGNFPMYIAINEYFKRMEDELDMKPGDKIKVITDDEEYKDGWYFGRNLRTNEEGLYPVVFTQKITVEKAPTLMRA

T5: Bud14, P27637
T5 sequence (P27637 247-328, looked up): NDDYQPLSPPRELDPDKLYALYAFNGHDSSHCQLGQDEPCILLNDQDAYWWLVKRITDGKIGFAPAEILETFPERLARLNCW

T6: Bzz1-1, P38822
T6 sequence (P38822 478-572, looked up): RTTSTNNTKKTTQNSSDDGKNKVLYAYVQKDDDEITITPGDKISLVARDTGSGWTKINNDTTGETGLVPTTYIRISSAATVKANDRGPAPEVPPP

T7: Bzz1-2, P38822
T7 sequence (P38822 568-633, looked up): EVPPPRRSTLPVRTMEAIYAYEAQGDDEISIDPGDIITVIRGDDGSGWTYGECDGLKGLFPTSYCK

T8: Cdc25, P04821
T8 sequence (P04821 50-136, looked up): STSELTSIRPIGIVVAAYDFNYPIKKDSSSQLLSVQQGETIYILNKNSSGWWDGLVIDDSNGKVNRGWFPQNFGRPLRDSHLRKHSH

T9: Cyk3, Q07533
T9 sequence (Q07533 1-83, looked up): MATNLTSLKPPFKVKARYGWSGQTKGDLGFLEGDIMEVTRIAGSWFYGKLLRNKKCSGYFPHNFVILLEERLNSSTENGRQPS

T10: Fus1, P11710
T10 sequence (P11710 432-512, looked up): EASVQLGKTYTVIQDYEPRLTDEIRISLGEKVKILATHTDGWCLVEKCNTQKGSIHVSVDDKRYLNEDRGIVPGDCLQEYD

T11: Hof1, Q05080
T11 sequence (Q05080 590-669, looked up): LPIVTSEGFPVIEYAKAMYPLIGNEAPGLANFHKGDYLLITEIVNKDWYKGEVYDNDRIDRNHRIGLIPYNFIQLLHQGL

T12: Hse1, P38753
T12 sequence (P38753 208-285, looked up): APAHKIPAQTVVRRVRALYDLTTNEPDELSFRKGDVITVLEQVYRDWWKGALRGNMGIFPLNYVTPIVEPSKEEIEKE

T13: Lsb1, P53281
T13 sequence (P53281 45-122, looked up): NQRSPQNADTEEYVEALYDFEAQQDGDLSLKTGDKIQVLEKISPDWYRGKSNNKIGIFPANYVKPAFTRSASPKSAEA

T14: Lsb3, P43603
T14 sequence (P43603 385-451, looked up): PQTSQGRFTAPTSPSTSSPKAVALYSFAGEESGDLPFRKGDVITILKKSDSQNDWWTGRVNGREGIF

T15: Lsb4, P32793
T15 sequence (P32793 402-468, looked up): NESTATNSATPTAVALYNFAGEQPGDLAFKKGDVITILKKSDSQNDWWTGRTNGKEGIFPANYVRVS

T16: Myo5, Q04439
T16 sequence (Q04439 1072-1160, looked up): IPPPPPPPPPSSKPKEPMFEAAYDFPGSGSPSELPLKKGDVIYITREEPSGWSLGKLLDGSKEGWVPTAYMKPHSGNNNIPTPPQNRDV

T17: Nbp2, Q12163
T17 sequence (Q12163 103-180, looked up): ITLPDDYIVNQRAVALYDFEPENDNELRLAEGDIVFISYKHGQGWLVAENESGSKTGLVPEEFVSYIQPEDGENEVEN

T18: Pex13, P80667
T18 sequence (P80667 295-386, looked up): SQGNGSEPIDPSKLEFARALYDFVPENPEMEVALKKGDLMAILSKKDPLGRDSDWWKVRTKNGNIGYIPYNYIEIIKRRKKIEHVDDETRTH

T19: Pin3, Q06449
T19 sequence (Q06449 53-122, looked up): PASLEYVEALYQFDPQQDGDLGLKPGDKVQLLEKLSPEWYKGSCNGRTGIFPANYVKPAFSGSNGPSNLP

T20: Sla1-2, P32790
T20 sequence (P32790 60-140, looked up): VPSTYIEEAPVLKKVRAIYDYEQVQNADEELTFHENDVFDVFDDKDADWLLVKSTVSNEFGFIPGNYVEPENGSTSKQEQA

T21: Sla1-3, P32790
T21 sequence (P32790 344-424, looked up): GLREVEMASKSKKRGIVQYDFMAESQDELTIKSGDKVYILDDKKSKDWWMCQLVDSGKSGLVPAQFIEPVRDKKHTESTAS

B1: unnamed (peptide)
chain: DKSRPPRPPPKPLHL
B2: unnamed (peptide)
chain: ALKQKKIPPPFKPHL
B3: unnamed (peptide)
chain: RPPRPPPKPLHLRTE

Target: T1, Abp1, P15891
Test: SPOT array
Details: median of control spots 935

Row | SPOT intensity | Binder
1 | 675 | B1
2 | 42 | B2
3 | 692 | B3

Target: T2, Bbc1, P47068
Test: SPOT array
Details: median of control spots 796

Row | SPOT intensity | Binder
4 | 5 | B1
5 | 0 | B2
6 | 15 | B3

Target: Bem1-1, P29366
Sequence (P29366 55-141): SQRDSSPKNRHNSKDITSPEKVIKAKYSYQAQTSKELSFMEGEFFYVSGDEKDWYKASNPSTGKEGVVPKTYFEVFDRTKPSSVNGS
Test: SPOT array
Details: median of control spots 4282

Row | SPOT intensity | Binder
7 | 0 | B1
8 | 0 | B2
9 | 4 | B3

Target: Bem1-2, P29366
Sequence (P29366 139-227): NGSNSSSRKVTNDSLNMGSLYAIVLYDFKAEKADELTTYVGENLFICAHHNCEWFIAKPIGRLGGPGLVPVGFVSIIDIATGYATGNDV
Test: SPOT array
Details: median of control spots 4347

Row | SPOT intensity | Binder
10 | 57 | B1
11 | 0 | B2
12 | 458 | B3

Target: T3, Boi1, P38041
Test: SPOT array
Details: median of control spots 1162

Row | SPOT intensity | Binder
13 | 0 | B1
14 | 0 | B2
15 | 0 | B3

Target: T4, Boi2, P39969
Test: SPOT array
Details: median of control spots 1161

Row | SPOT intensity | Binder
16 | 0 | B1
17 | 0 | B2
18 | 3 | B3

Target: T5, Bud14, P27637
Test: SPOT array
Details: median of control spots 956

Row | SPOT intensity | Binder
19 | 1 | B1
20 | 0 | B2
21 | 0 | B3

Target: T6, Bzz1-1, P38822
Test: SPOT array
Details: median of control spots 4446

Row | SPOT intensity | Binder
22 | 36 | B1
23 | 0 | B2
24 | 30 | B3

Target: T7, Bzz1-2, P38822
Test: SPOT array
Details: median of control spots 4538

Row | SPOT intensity | Binder
25 | 1 | B1
26 | 0 | B2
27 | 38 | B3

Target: T8, Cdc25, P04821
Test: SPOT array
Details: median of control spots 969

Row | SPOT intensity | Binder
28 | 0 | B1
29 | 0 | B2
30 | 0 | B3

Target: T9, Cyk3, Q07533
Test: SPOT array
Details: median of control spots 1451

Row | SPOT intensity | Binder
31 | 0 | B1
32 | 0 | B2
33 | 0 | B3

Target: T10, Fus1, P11710
Test: SPOT array
Details: median of control spots 1200

Row | SPOT intensity | Binder
34 | 0 | B1
35 | 0 | B2
36 | 0 | B3

Target: GST
Test: SPOT array
Details: median of control spots 978

Row | SPOT intensity | Binder
37 | 0 | B1
38 | 0 | B2
39 | 0 | B3

Target: T11, Hof1, Q05080
Test: SPOT array
Details: median of control spots 4086

Row | SPOT intensity | Binder
40 | 0 | B1
41 | 0 | B2
42 | 3 | B3

Target: T12, Hse1, P38753
Test: SPOT array
Details: median of control spots 1727

Row | SPOT intensity | Binder
43 | 36 | B1
44 | 0 | B2
45 | 539 | B3

Target: T13, Lsb1, P53281
Test: SPOT array
Details: median of control spots 388

Row | SPOT intensity | Binder
46 | 4 | B1
47 | 0 | B2
48 | 266 | B3

Target: T14, Lsb3, P43603
Test: SPOT array
Details: median of control spots 406

Row | SPOT intensity | Binder
49 | 216 | B1
50 | 0 | B2
51 | 306 | B3

Target: T15, Lsb4, P32793
Test: SPOT array
Details: median of control spots 397

Row | SPOT intensity | Binder
52 | 177 | B1
53 | 0 | B2
54 | 201 | B3

Target: Myo3, P36006
Test: SPOT array
Details: median of control spots 468

Row | SPOT intensity | Binder
55 | 160 | B1
56 | 0 | B2
57 | 121 | B3

Target: T16, Myo5, Q04439
Test: SPOT array
Details: median of control spots 471

Row | SPOT intensity | Binder
58 | 44 | B1
59 | 0 | B2
60 | 33 | B3

Target: T17, Nbp2, Q12163
Test: SPOT array
Details: median of control spots 357

Row | SPOT intensity | Binder
61 | 0 | B1
62 | 0 | B2
63 | 86 | B3

Target: T18, Pex13, P80667
Test: SPOT array
Details: median of control spots 1341

Row | SPOT intensity | Binder
64 | 144 | B1
65 | 0 | B2
66 | 479 | B3

Target: T19, Pin3, Q06449
Test: SPOT array
Details: median of control spots 2171

Row | SPOT intensity | Binder
67 | 0 | B1
68 | 0 | B2
69 | 5 | B3

Target: Rvs167, P39743
Sequence (P39743 419-482): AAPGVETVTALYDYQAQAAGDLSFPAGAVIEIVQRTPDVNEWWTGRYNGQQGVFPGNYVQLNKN
Test: SPOT array
Details: median of control spots 2707

Row | SPOT intensity | Binder
70 | 0 | B1
71 | 0 | B2
72 | 12 | B3

Target: Sho1, P40073
Sequence (P40073 287-367): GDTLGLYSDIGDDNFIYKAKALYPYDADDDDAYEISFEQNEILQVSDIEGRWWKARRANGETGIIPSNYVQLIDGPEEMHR
Test: SPOT array
Details: median of control spots 1148

Row | SPOT intensity | Binder
73 | 155 | B1
74 | 0 | B2
75 | 780 | B3

Target: T20, Sla1-2, P32790
Test: SPOT array
Details: median of control spots 712

Row | SPOT intensity | Binder
76 | 0 | B1
77 | 0 | B2
78 | 1 | B3

Target: T21, Sla1-3, P32790
Test: SPOT array
Details: median of control spots 5475

Row | SPOT intensity | Binder
79 | 0 | B1
80 | 0 | B2
81 | 43 | B3
